The values that follow come from patent US12134663B2, “Cationic peptides for activating Lck” (Interk Peptide Therapeutics Limited, priority 2018, dated 2024).

Entries after “also recorded” stand apart in the source; their conditions may differ. Where no end group is shown, it is not given here. [ ]: non-standard residue; d: D form. 2Adod = 2-amino-dodecanoic acid; Orn = NCCC[C@H](N)C(=O)O

The target in one assay is T1, Lck (Homo sapiens, UniProt P06239).
T1 construct: purchased Eurofins Pharma Discovery Services UK Limited
The assay is described as follows: In vitro Lck activation kinase study (Eurofins). Type of assay: biochemical. The settings on record: peptide 1 μM where stated. Here is the method:
The ability of polypeptides of the present invention to activate Lck was examined in vitro. Lck is member of the Src family of tyrosine kinases. […] All results in are percentage Lck activity relative to control (100%).
Test polypeptides were assessed at a concentration of 1.0 μM.
The ability of polypeptides of the present invention to activate Src family kinases was examined in vitro. Kinase activation studies utilising peptides were carried out as described in Example 1, and all kinase activity values are shown as percentage relative to control.
The ability of polypeptides comprising both lysine and arginine to activate Lck in vitro was examined. Lck activation studies utilising peptides were carried out as described in Example 1, and all kinase activity values are shown as percentage relative to control.
Target sequence in this assay (P06239 whole entry): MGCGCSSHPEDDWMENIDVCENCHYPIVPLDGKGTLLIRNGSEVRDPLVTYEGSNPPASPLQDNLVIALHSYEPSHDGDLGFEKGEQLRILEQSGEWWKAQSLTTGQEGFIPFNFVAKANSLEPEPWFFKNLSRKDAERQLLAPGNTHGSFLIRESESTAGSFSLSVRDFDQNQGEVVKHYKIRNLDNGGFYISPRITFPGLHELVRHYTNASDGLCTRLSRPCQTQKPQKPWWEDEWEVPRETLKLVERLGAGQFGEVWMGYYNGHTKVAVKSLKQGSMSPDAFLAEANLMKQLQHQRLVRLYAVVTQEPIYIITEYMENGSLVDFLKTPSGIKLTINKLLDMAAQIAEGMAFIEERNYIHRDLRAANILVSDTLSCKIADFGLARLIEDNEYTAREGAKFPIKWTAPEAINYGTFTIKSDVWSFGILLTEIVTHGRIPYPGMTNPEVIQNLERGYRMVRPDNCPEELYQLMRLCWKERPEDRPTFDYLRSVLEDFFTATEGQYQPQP
Consider “RSKAKNPLY-RRRR (RSKAKNPLYRRRR) [SEQ ID NO: 32]”, for which the “Lck activation (in words)” value is “no Lck activation”.

On to “[Orn][Orn][Orn][Orn][Orn][Orn][Orn][Orn][Orn][Orn] [10 Orn]”, for which the “Lck activation (in words)” value was “Negligible Lck activity”.

Regarding RRRRR [SEQ ID NO: 2], the “Lck activation (in words)” value is “do not activate Lck”.

RRRR [SEQ ID NO: 119]: the “Lck activation (in words)” value is reported as “do not activate Lck”.

In the case of “Branched < RSKAKNPLY-RRRRRRRRR-HHHHHHHHHH (RSKAKNPLYRRRRRRRRRHHHHHHHHHH; also: branched (1)..(28)) [Br IK14810]”, the “Lck activation (in words)” value is recorded as “Substantially increased Lck activity”.

As for RVKVKVVVV [IK95000], the “Lck activation (in words)” value is on record as “substantial increases in Lck activity”.

HHHHHHHHHH [10His]: the “Lck activation (in words)” value was “No increase in Lck activity; also recorded: did not induce any activation of Lck”.

As for DDDDDDDDD [IKD9], the “Lck activation (in words)” value is on record as “does not activate Lck”.

With RSKAK [IK5000], the “Lck activation (in words)” value was “no or negligible Lck activation”.

For RRRRRR [SEQ ID NO: 3], the “Lck activation (in words)” value is on record as “do not activate Lck”.

Still in this assay, the particulars now being: peptide 1 μM where stated; listed as DDDDDDDDD
On to DDDDDDDDD [IKD9], for which the “Lck activation (in words)” value is on record as “does not increase the activity of Lck”.

The assay is the same for the next values; noted with them: peptide 1 μM; relative to control.
Regarding “RVKVK-RRRRRRRRR-HHHHHHHHHH (RVKVKRRRRRRRRRHHHHHHHHHH) [IK50810]”, the “increase in Lck activity” value was 778%.

A further assay addresses T1, Lck. The experiment in a line: Lck Activity above control (1µM).
Settings: not given
Here is the method: First copying reader's note: The Peptide column holds the sequence together with the SEQ ID NO and the peptide code; the activity was measured at 1µM peptide, as the head states.
On to “RRRRRRRRRRRRRR-OH (SEQ ID NO: 11, IK014OH)”, for which the “Lck Activity above control (1 µM)” value was found to be 156%.

For RRRRR (SEQ ID NO: 2, IK00500), the “Lck Activity above control (1 µM)” value is 0%.

On to “RSKAKNPLYR-RRRRRRRR-(2Adod)4-NH2 (SEQ ID NO: 65, IK14804) (RSKAKNPLYRRRRRRRRR-{2Adod-2Adod-2Adod-2Adod-NH2})”, for which the “Lck Activity above control (1 µM)” value is 468%.

For RRRRRRRR (SEQ ID NO: 4, IK00800), the “Lck Activity above control (1 µM)” value turned out to be 126%.

With “HHHHH-RRRRRRRRR-HHHHH (SEQ ID NO: 17, IK05950) (HHHHHRRRRRRRRRHHHHH)”, the “Lck Activity above control (1 µM)” value is recorded as 286%.

As to RRRR (SEQ ID NO: 1, IK00400), the “Lck Activity above control (1 µM)” value was found to be 0%.

Consider “DSEAENPLY-DDDDDDDDD-NH2 (SEQ ID NO: 23, IKDE800) (DSEAENPLYDDDDDDDDD-NH2)”, for which the “Lck Activity above control (1 µM)” value was found to be 0%.

For the substance HHHHHHHHHH (SEQ ID NO: 14, 10His), the “Lck Activity above control (1 µM)” value turned out to be 0%.

Regarding RRRRRRRRRRRR (SEQ ID NO: 8, IK01200), the “Lck Activity above control (1 µM)” value worked out at 401%.

Consider “RRRRRRRR-HHHHHHHHHH (SEQ ID NO: 19, IK00810) (RRRRRRRRHHHHHHHHHH)”, for which the “Lck Activity above control (1 µM)” value is given as 259%.

As for RRRRRRRRRR (SEQ ID NO: 7, IK00100), the “Lck Activity above control (1 µM)” value was found to be 389%.

As for RRRRRRRRRRRRRR (SEQ ID NO: 9, IK01400), the “Lck Activity above control (1 µM)” value is reported as 351%.

For the substance “RSKAKNPLY-RRRRRRRRR-NH2 (SEQ ID NO: 24, IK14800) (RSKAKNPLYRRRRRRRRR-NH2)”, the “Lck Activity above control (1 µM)” value was 377%.

For the substance “OrnOrnOrnOrnOrnOrnOrnOrnOrnOrn (SEQ ID NO: 15, 10 Orn)”, the “Lck Activity above control (1 µM)” value is on record as 13%.

Regarding “KKKKKKKK-HHHHHHHHHH (SEQ ID NO: 18, IK00K10)”, the “Lck Activity above control (1 µM)” value is on record as 70%.

Regarding “RRRRRRRRRRRRRRRRRRRR (SEQ ID NO: 12, IK00200) (RRRRRRRRRRRRRRRRRRRRR)”, the “Lck Activity above control (1 µM)” value is reported as 279%.

In the case of “HHH-RRRRRRRRR-HHH (SEQ ID NO: 16, IK03930) (HHHRRRRRRRRRHHH)”, the “Lck Activity above control (1 µM)” value worked out at 386%.

For the substance DDDDDDDDD-NH2 (SEQ ID NO: 21, IKD9), the “Lck Activity above control (1 µM)” value was found to be 0%.

With RRRRRR (SEQ ID NO: 3, IK00600), the “Lck Activity above control (1 µM)” value was determined as 0%.

Regarding “RVKVKVVVVR-RRRRRRRR-(2Adod)4-NH2 (SEQ ID NO: 66, IK15804) (RVKVKVVVVRRRRRRRRR-{2Adod-2Adod-2Adod-2Adod-NH2})”, the “Lck Activity above control (1 µM)” value came to 335%.

In another assay the test system is Fgr. The experiment in a line: Lck Activity above control (1 µM) | Fgr.
Settings: not given
Here is the method:
Table printed on a drawing sheet, FIG. 2
Head of the field: Lck Activity above control (1 µM) | Fgr
First copying reader's note: Kinase activity above control for each Src family kinase at 1 µM peptide; the cell for IK00800/Fgr is printed as '%' without a digit.
Where the first naming reader finds the target: head: Lck Activity above control (1 µM) | Fgr
KKKKKKKKKK [10Lys]: the “Lck Activity above control (1 µM) | Fgr” value turned out to be 0%.

With “rskaknplyrrrrrrrrr ([dR][dS][dK][dA][dK][dN][dP][dL][dY][dR][dR][dR][dR][dR][dR][dR][dR][dR]) [IKD14800]”, the “Lck Activity above control (1 µM) | Fgr” value stood at 0%.

The target in the next assay is T1, Lck. The assay is described as follows: Lck Activity above control (1 µM).
Settings: not given
Here is the method: Table printed on a drawing sheet, FIG. 4
(§1) Head of the field: Lck Activity above control (1 µM)
First copying reader's note: The first column holds the sequence together with the SEQ ID NO and peptide code in one cell; activity was measured at 1 µM peptide.
(§2) Where the first naming reader finds the target: head: Lck Activity above control (1 µM)
With “RSKAK-R (SEQ ID NO: 26, IK50100) (RSKAKR)”, the “Lck Activity above control (1 µM)” value amounted to 0%.

As to “RSKAKNPLY-RRRRRRRRR-GPLG (SEQ ID NO: 41, IK148MP9) (RSKAKNPLYRRRRRRRRRGPLG)”, the “Lck Activity above control (1 µM)” value came out at 320%.

“RSKAK-RRR (SEQ ID NO: 28, IK50300) (RSKAKRRR)”: the “Lck Activity above control (1 µM)” value is reported as 0%.

On to “RSKAKNPLY-KKKKKKKKK (SEQ ID NO: 44, IK94K90)”, for which the “Lck Activity above control (1 µM)” value is on record as 49%.

As for “r s k a k n p l y - r r r r r r r r r (SEQ ID NO: 129, IKD14800) ([dR][dS][dK][dA][dK][dN][dP][dL][dY][dR][dR][dR][dR][dR][dR][dR][dR][dR])”, the “Lck Activity above control (1 µM)” value is listed as 490%.

On to RSKAKNPLYR (SEQ ID NO: 31, IK14000), for which the “Lck Activity above control (1 µM)” value is recorded as 0%.

As for “RSKAKNPLY-RRRR (SEQ ID NO: 32, IK14300) (RSKAKNPLYRRRR)”, the “Lck Activity above control (1 µM)” value is given as 0%.

Regarding “RSKAK-RRRR (SEQ ID NO: 29, IK50400) (RSKAKRRRR)”, the “Lck Activity above control (1 µM)” value is reported as 0%.

For RSKAKNPLY (SEQ ID NO: 30, IK94000), the “Lck Activity above control (1 µM)” value was 0%.

In the case of “IAGQ-RSKAKNPLY-RRRRRRRRR (SEQ ID NO: 40, IKM14800) (IAGQRSKAKNPLYRRRRRRRRR)”, the “Lck Activity above control (1 µM)” value came out at 454%.

The next assay has as its target T1, Lck. The assay is described as follows: Lck Activity above control (1 µM).
Settings: not given
The source holds these as a separate data set. Here is the method: Table printed on a drawing sheet, FIG. 5
as §1
First copying reader's note: The Peptide column holds the sequence together with its SEQ ID NO and IK code in brackets; the activity was measured at 1 µM peptide and the % sign stands in the cells.
as §2
Regarding “RRRRRRRR-HHHHHHHHHH-RSKAKNPLYR (SEQ ID NO: 52, IK81140) (RRRRRRRRHHHHHHHHHHRSKAKNPLYR)”, the “Lck Activity above control (1 µM)” value is 567%.

With “Branched < RSKAKNPLY-RRRRRRRRR-HHHHHHHHHH (SEQ ID NO: 48, Br IK14810) (RSKAKNPLYRRRRRRRRRHHHHHHHHHH; also: branched (1)..(28))”, the “Lck Activity above control (1 µM)” value turned out to be 596%.

Consider “RVKVKVVVV-RHRHRHRHRHRHRHRH-HH (SEQ ID NO: 61, IK52820) (RVKVKVVVVRHRHRHRHRHRHRHRHHH)”, for which the “Lck Activity above control (1 µM)” value is reported as 408%.

Regarding “HHHHH-RSKAKNPLY-RRRRRRRRR-HHHHH (SEQ ID NO: 53, IK51455) (HHHHHRSKAKNPLYRRRRRRRRRHHHHH)”, the “Lck Activity above control (1 µM)” value was 685%.

As to “RSKAKNPLY-RRRRRRRRR-HHHHHHHHHHHH (SEQ ID NO: 49, IK14820) (RSKAKNPLYRRRRRRRRRHHHHHHHHHHHH)”, the “Lck Activity above control (1 µM)” value came out at 556%.

As to “RVKVKVVVV-RRRRRRRRR-HHHHHHHHHH (SEQ ID NO: 60, IK50810) (RVKVKVVVVRRRRRRRRRHHHHHHHHHH)”, the “Lck Activity above control (1 µM)” value is reported as 778%.

Take “RSKAKNPLY-RRRRRRRRR-HHHHH (SEQ ID NO: 46, IK14510) (RSKAKNPLYRRRRRRRRRHHHHH)”: the “Lck Activity above control (1 µM)” value worked out at 524%.

Consider “HHHHH-RRRRRRRRR-HHHHH-RSKAKNPLYR (SEQ ID NO: 51, IK59514) (HHHHHRRRRRRRRRHHHHHRSKAKNPLYR)”, for which the “Lck Activity above control (1 µM)” value is on record as 441%.

For the substance “KEKLKNPLFK-RRRRRRRR-HHHHHHHHHH (SEQ ID NO: 64, IKB2810) (KEKLKNPLFKRRRRRRRRHHHHHHHHHH)”, the “Lck Activity above control (1 µM)” value is given as 379%.

For the substance “RSKAKNPLY-RKRKRKRKRK (SEQ ID NO: 54, IK94RK0) (RSKAKNPLYRKRKRKRKRK)”, the “Lck Activity above control (1 µM)” value was 456%.

For the substance “RVKVKVVVV-RRRRRRRR (SEQ ID NO: 57, IK15700) (RVKVKVVVVRRRRRRRR)”, the “Lck Activity above control (1 µM)” value turned out to be 512%.

As to “RRRRRRRR-RVKVKVVVV-R (SEQ ID NO: 59, IK80150) (RRRRRRRRRVKVKVVVVR)”, the “Lck Activity above control (1 µM)” value worked out at 520%.

For the substance RVKVKVVVV (SEQ ID NO: 55, IK95000), the “Lck Activity above control (1 µM)” value is on record as 518%.

Regarding “RVKVKVVVV-RRRRRRRRR (SEQ ID NO: 58, IK15800) (RVKVKVVVVRRRRRRRRR)”, the “Lck Activity above control (1 µM)” value is 479%.

Consider “RVKVKVVVV-RRRRR (SEQ ID NO: 56, IK15400) (RVKVKVVVVRRRRR)”, for which the “Lck Activity above control (1 µM)” value was found to be 382%.
